Reference: PMC11310380 (Cell reports, 2024)

Target: the molecule itself
Test: cross-linking

B1: P9-hTTN3 (human Tentonin 3/TMEM150C with the P9 sequence at its N terminus) (natural protein, UniProt B9EJG8 1-249, looked up)
chain: MDGKKCSVWMFLPLVFTLFTSAGLWIVYFIAVEDDKILPLNSAERKPGVKHAPYISIAGDDPPASCVFSQVMNMAAFLALVVAVLRFIQLKPKVLNPWLNISGLVALCLASFGMTLLGNFQLTNDEEIHNVGTSLTFGFGTLTCWIQAALTLKVNIKNEGRRVGIPRVILSASITLCVVLYFILMAQSIHMYAARVQWGLVMCFLSYFGTFAVEFRHYRYEIVCSEYQENFLSFSESLSEASEYQTDQV
For B1, the “stoichiometry N” value was 4.
